Assay [1] concerns the target TOX (UniProt Q66JW3). The assay is described as follows: anti-TOX IP from EL4 nuclear extract, LC-MS/MS, MiST vs IgG control.
Assay [2] concerns the target TOX (UniProt Q66JW3). The assay is described as follows: TOX co-IP from EL4 nuclear extract, LC-MS/MS, MiST.

Sequence of TOX (Q66JW3 whole entry): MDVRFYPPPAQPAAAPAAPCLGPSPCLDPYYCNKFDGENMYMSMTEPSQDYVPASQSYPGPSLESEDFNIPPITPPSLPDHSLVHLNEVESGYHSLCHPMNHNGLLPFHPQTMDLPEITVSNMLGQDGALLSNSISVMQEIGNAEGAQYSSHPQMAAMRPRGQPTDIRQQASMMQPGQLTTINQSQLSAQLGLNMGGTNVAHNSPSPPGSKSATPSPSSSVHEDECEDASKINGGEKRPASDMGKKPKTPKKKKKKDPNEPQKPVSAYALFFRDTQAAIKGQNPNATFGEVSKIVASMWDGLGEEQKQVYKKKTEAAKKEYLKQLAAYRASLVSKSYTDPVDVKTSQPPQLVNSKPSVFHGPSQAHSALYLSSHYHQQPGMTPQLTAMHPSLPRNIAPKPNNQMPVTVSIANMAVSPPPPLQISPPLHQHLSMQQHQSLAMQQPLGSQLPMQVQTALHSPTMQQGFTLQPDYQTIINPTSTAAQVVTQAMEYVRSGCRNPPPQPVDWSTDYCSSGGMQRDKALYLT

B1: Cwc27 (protein, UniProt Q3TKY6 2-469, looked up)
Spliceosome-associated protein CWC27 homolog: SNIYIQEPPTNGKVLLKTTAGDIDIELWSKEAPKACRNFIQLCLEAYYDNTIFHRVVPGFIVQGGDPTGTGTGGESIYGAPFKDEFHSRLRFNRRGLVAMANAGPHDNGSQFFFTLGRADELNNKHTIFGKVTGDTVYNMLRLTEVDIDDEERPRNPHRIKSCEVLFNPFDDITPREIKKPKNEKPEEEVKKLKPKGTKNFSLLSFGEEAEEEEEEVNRVSQSMKGRSKSSHDLLKDDPHLSSVPAVESEKDDATGDLEDDGEDDSAERDEYMEDDEKNLMRERIAKRLKKDASASVKSAGDGEKKPASRSEELRKEARQLKRELLAAKQKKETAIKVEEGREEEEAAPDGAVAEYRREKQKYEALRKQQPKKGTSREDQTLALLSQFKSKLTQAITETPENSVPEAEVEDDEGWMSHVLQFEDKTRKVKDASMQDSDTFEIYDPRNPVNKRRREESKKLLREKKERR
In the assay with TOX [1], B1 displayed an Abundance of 1.14e-05, a MiST Score of 0.758, a Reproducibility of 0.435 and a Specificity of 0.91.

B2: Spty2d1 (protein, UniProt Q68FG3 1-682, looked up)
Protein SPT2 homolog: MDFREILLIASKGQGVNHVPKRYSLAVGPPKKDPKVKGVQSAAVQAFLRRKEEELRQKALEEKKRKEELVKKRIELKHDKKARAMAKRTKDNFHGYDGIPVEEKTKKKQLVESHLNQGTDQEYDVEEEDFIDYNQAELDQDYEEEQEPPKAESKPKAPLKSAPSPMNFTDLLRLAEKKQFEPVEIKVVKKAEDRPLTAEELREREFLERKHRKKKPEPDAKLPPPVLKKAPSHKDIMGTKPSRGAGDRQLASKGLPFPQAEKKFRPSTASEKQAALSSPKSLPGERTKVGSGSSTQPSLREGHNRPVFNGAGKPRPSTCSPSVPKTPASGTQKSASEHKAKKPLPSHPSHSKPGPTVLSHNKSKSPGVRQPGSNSGSAPGQPNPGTARPTLSSGPVPRRQNGSSSSGPEQSAGGIRKLASNSHLSGRTLNGTNGPGRPASSSSGPGRPISGSAGSGRPVGSSGGPGQPVNNPHDLRRPMNSLSSPGRAVSGPGRSISGSIPAGRTVNSGPGRPVSSLGPGRAVSNPGLPTKPRCTVVSETISSKNIISRSSNGQINGMKPLLSGYRSAQGPQRLPFPTGYKRPREYEEDDDDEYDSEMDDFIEDEGEPQEEISKHIREIFGYDRKKYKDESDYALRYMESSWKEQQKEEAKSLRLGMQEDLEEMRREEEELKRRKAKKLKRH
In the assay with TOX [2], B2 had an Abundance of 1.04e-05, a MiST Score of 0.846, a Reproducibility of 0.848 and a Specificity of 0.852.

These data come from patent US20210071139A1.
